Entries after “also recorded” stand apart in the source; their conditions may differ.
Assays:
[1] = system: anti-Adda mAb-MC-LR immunocomplex; type: binding
[2] = system: immunocomplex of CCPH variant and biotinylated anti-Adda mAb; test: Single-step non-competitive TR-IFMA with SA51D1 scFv-AP, toxin standards; type: binding
[3] = system: immunocomplex formed by anti-Adda Mab and MC-LR; test: BioLayer Interferometry (Octet), binding to immunocomplex; details: SA51D1 1 μg/ml
Method: (§1) Binding of SA51D1 was explored using Octet RED384 instrument (Pall ForteBio). Three measurements (A, B and C) were performed in duplicates using tilted-bottom 384-well microplates (ForteBio) with 1000 rpm agitation at 30° C. Colorless Assay Buffer (Kaivogen) [0.05 M Tris-HCl, pH 7.75, 0.9% (w/v) NaCl, 0.05% (w/v) NaN3, 0.01% (v/v) Tween 40, 0.05% (w/v) bovine-γ-globulin, 20 μM diethylenetriaminepentaacetate (DTPA), and 0.5% (w/v) bovine serum albumin (BSA)] was used.
(§2) Biotinylated ADDA Mab AD4G2 (1 μg/ml) was immobilized on Streptavidin biosensor (Dip and Read SA Biosensors, ForteBio) for 200 sec. In order to form IC, another loading was performed with MC-LR (1 μg/ml) for 200 sec. In blank measurement (C) only buffer was used instead of MC-LR. All sensors were incubated in buffer for 60 sec.

[4] = BioLayer Interferometry (Octet), pre-incubation with free toxin; type: binding; details: pre-incubated with 500 μg/L MC-LR
Method: as §1, §2

[5] = system: biotinylated anti-Adda Mab, no CCPH; test: TR-IFMA background signal without CCPH; type: binding
Method: (§3) By way of example, the specificity of SA51D1 to the immune complex was also seen in our immunoassay, where streptavidin-coated 96-well microtiter wells were used to capture a complex formed by biotinylated anti-Adda Mab, CCPH, SA51D1 antibody fused to alkaline phosphatase and this complex was detected with europium-labelled anti-alkaline phosphatase Pab. […] With 10 μg/l level of MC-LR the fluorescence signal was 789966 counts.

[6] = system: anti-Adda mAb without MC-LR; test: BioLayer Interferometry (Octet), binding to naked primary antibody; details: SA51D1 1 μg/ml; no MC-LR
Method: as §1, §2

[7] = system: immunocomplexes of CCPH variants and anti-Adda mAb; test: Screening and cross-reactivity studies of anti-IC scFv-AP binders, specificity class; type: binding
[8] = system: immunocomplex of CCPH variant and biotinylated anti-Adda mAb; test: Quantitative lateral flow test with streptavidin up-converting nanoparticles; type: binding; details: each CCPH at 1 μg/l
[9] = system: complex of biotinylated anti-Adda Mab and MC-LR; test: TR-IFMA signal with MC-LR; type: binding; details: 10 μg/l MC-LR
Method: as §3

[10] = system: CCPH in unknown water samples, immunocomplex with anti-Adda mAb; test: Anti-IC immunoassay profiling of blinded water samples (Abraxis proficiency testing); type: binding; details: sample MC-TK8, MC-LR + MC-RR + MC-YR, 4 + 1 + 1 μg/l; listed as Nod5
[11] = system: immunocomplexes of MC-XZ and Nod-R with anti-Adda mAb; test: Cross-reactivity profile of anti-IC binders by single-step non-competitive assay (FIG. 5); type: binding; details: toxin 0.1 to 60 μg/L

With MC-LR the “Sensitivity (blank+3SD)” value [1] was “below 0.3 μg/L”.

For MC-LA, the Sensitivity [2] was 0.05 µg/L.

B1: SA51D1: group-specific (generic) anti-immunocomplex scFv from synthetic phage display library (antibody, V domains shown)
VH: EVQLLESGGGLVQPGGSLRLSCAASGFTFSNYSMHWVRQAPGKGLEWVSEITPYDGNTDYADSVKGRFTISRDNSKNTLYLQMNSLRAEDTAVYYCAREWWSSNWIYLDYWGQGTLVTVSS
VL: EIVLTQSPGTLSLSPGERATLSCRASQSVSSSNLAWYQQKPGQAPRLLIYGASSRATGVPDRFSGSGSGTDFTLTISRLEPEDFAVYYCQQMHSTPWTFGQGTKVEIKRT
modifications: Clone SA51D1; DOMAIN (31)..(35) CDR1; DOMAIN (50)..(66) CDR2; DOMAIN (99)..(110) CDR3; DOMAIN (24)..(35) CDR1; DOMAIN (51)..(57) CDR2; DOMAIN (90)..(98) CDR3
With B1 the Binding to immunocomplex [3] was “binds specifically”, the “Affinity towards free MC-LR” value [4] was “does not have affinity; also recorded: no affinity” and the “Background fluorescence signal level” value [5] was 404 counts. The “Binding to anti-Adda mAb alone” value [6] was “no interaction; also recorded: neglegtable binding”, the “Specificity of anti-IC antibody (CCPH immunocomplexes recognized)” value [7] was “group-specific; also recorded: broad-specific” and the “Recognition of nine CCPH variants in lateral flow test” value [8] was “recognizes all CCPH variants tested”. It also gave a Fluorescence signal [9] of 789966 counts.

B2: SA32C11: variant-specific anti-IC antibody, Nod-R (antibody, V domains shown)
VH: EVQLLESGGGLVQPGGSLRLSCAASGFTFSDYWMHWVRQAPGKGLEWVSEINTSNGNTYYADSVKGRFTISRDNSKNTLYLQMNSLRAEDTAVYYCARESWWPYSFDYWGQGTLVTVSS
VL: EIVLTQSPGTLSLSPGERATLSCRASQSVSSSNLAWYQQKPGQAPRLLIYGASSRATGVPDRFSGSGSGTDFTLTISRLEPEDFAVYYCQQSSSLPWTFGQGTKVEIKRT
modifications: Clone SA32C11; DOMAIN (31)..(35) CDR1; DOMAIN (50)..(66) CDR2; DOMAIN (99)..(108) CDR3; DOMAIN (24)..(35) CDR1; DOMAIN (51)..(57) CDR2; DOMAIN (90)..(98) CDR3
In the case of B2, the “Specific anti-IC assay result” value [10] is reported as “not”, the “Specificity (cross-reactive pattern)” value [11] is reported as “specificity only towards Nod-R” and the “Specificity of anti-IC antibody (CCPH immunocomplexes recognized)” value [7] is reported as “recognize immunocomplexes comprising Nod-R; also recorded: nodularin-R specific”. For the same molecule, the “Recognition of nine CCPH variants in lateral flow test” value [8] was “Only Nodularin was recognized”.
